Assay [1] concerns the target T1, human FSTL1 (construct not stated) (human, UniProt Q12841 21-308).
T1 construct: also called human FSTL1 antigen; FSTL1 (R&D Systems, Inc. Cat#1694-FN-050)
T1 sequence: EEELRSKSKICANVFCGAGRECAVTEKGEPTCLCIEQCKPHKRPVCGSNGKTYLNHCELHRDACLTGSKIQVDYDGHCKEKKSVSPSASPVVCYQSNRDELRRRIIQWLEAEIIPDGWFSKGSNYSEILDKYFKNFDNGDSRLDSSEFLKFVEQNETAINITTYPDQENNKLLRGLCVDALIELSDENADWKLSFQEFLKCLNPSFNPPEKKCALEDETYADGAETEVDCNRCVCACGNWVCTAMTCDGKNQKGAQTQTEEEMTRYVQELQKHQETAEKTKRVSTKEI
The assay can be described thus: SPR (Biacore T-200), captured antibody, human FSTL1 10 µg/ml. On the procedure: (§1) The mouse chimeric antibodies were immobilized onto Sensor Chip CM5 (GE Healthcare Japan Corp., BR-1005-30) using Mouse Antibody Capture Kit (GE Healthcare Japan Corp., BR-1008-38), and their affinity for human FSTL1 was calculated using Biacore T-200 (GE Healthcare Japan Corp.).
(§2) First, the exhaustive activity comparison of the obtained antibodies was conducted with the human FSTL1 concentration fixed to 10 μg/ml (Table 33-1, FIG. 28).

Assay [2] concerns the target T1, human FSTL1 (construct not stated). The assay is described as above. The protocol: as §1
The source holds these as a separate data set.

Assay [3] has as its target T2, His-tagged mouse FSTL1 (amino acid sequence of mouse FSTL1 used in Examples, SEQ ID NO: 72) (mouse, UniProt Q62356 19-306).
T2 sequence: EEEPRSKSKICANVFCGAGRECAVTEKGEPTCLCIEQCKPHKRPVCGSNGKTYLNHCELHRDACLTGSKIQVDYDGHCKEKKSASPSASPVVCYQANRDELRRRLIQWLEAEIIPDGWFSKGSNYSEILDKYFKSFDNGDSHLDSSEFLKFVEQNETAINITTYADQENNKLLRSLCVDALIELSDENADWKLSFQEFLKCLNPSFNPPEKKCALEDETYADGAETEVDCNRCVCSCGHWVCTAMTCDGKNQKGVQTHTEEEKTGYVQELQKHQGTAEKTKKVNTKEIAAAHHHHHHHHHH
The assay can be described thus: ELISA, mouse FSTL1 coated (FIG. 1B).

The target in assay [4] is T1, human FSTL1 (construct not stated). Put plainly: SPR (Biacore T-200), captured antibody, human FSTL1 10 µg/ml. The protocol:
as §1, §2
This is another data set of the same source.

Assay [5] has the same target. The assay is described as above. On the procedure: as §1, §2
The source holds these as a separate data set.

For assay [6] the target is unchanged. The assay can be described thus: BLI (BLItz), biotinylated antigen 5 µg/ml on streptavidin sensor, antibody 0 to 40 ug/ml. The protocol: The binding activity of the obtained purified antibody against FSTL1 was measured by use of the BLI method (BLItz, Pall Corp., 45-5000). The antigen was biotinylated using EZ-Link NHS-PEG4-Biotin (Thermo Fisher Scientific Inc., 21329). Streptavidin Tray (Pall Corp., 18-5019) was used as a sensor chip for the BLI method. The sensor chip was hydrated with PBS (Wako Pure Chemical Industries, Ltd., 166-23555) for 10 minutes or longer. 5 μg/ml of the biotinylated antigen was immobilized onto the hydrated sensor chip for 300 seconds. The antibody was adjusted to 40, 20, 10, 5, 2.5, or 0 ug/ml and reacted therewith for 120 seconds, and dissociation was measured for 300 seconds. When the antibody concentration of 0 ug/ml was used as a reference, the KD value was calculated.

Assay [7] addresses T3, His-tagged human FSTL1 (amino acid sequence of human FSTL1 used in Examples, SEQ ID NO: 70) (human, UniProt Q12841 21-308).
T3 construct: Parent of the deletion mutants
T3 sequence: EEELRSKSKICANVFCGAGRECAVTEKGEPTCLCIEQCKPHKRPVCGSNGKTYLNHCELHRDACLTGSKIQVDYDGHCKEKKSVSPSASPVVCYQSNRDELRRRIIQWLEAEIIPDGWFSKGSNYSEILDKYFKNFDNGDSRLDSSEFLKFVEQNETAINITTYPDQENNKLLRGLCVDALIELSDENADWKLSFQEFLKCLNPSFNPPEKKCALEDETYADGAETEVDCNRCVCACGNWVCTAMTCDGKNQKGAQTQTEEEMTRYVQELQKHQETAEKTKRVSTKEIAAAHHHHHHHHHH
Put plainly: ELISA, human FSTL1 coated (FIG. 3A).

In assay [8] the target is T2, His-tagged mouse FSTL1 (amino acid …). The assay can be described thus: ELISA, mouse FSTL1 coated (FIG. 3B).

Where two headings read alike, the source gives them in different places.

B1: anti-FSTL1 antibody clone #7-34 (chicken-mouse chimeric antibody) (antibody, mouse IgG1, kappa, V domains shown)
VH: AVTLDESGGGLQTPGGGLSLVCKASGFTFSSVTMQWVRQAPGKGLEWVASICSGSSTYYGPAVKGRATISRDNGQNTVRLQLNNLRAEDTATYYCAKIVGRGRWSCTSAAYNIDAWGHGTEVIVSS
VL: ASTQPSSVSANPGETVKITCSGGGNNYGWYQQKSPGSAPVTVIYYNNNRPSNIPSRFSGSTSGSTSTLTITGVQAEDEAVYYCGSYEGSTDSGIFGAGTTLTVLG
For the molecule B1, the “Binding amount (RU)” value in assay [1], in assay [2], in assay [4] and in assay [5] was 14.2 RU throughout. In addition, the “Dissociation amount (RU)” value in assay [1], in assay [2], in assay [4] and in assay [5] was 2.5 RU each time. The binding result in assay [3] was “binds”.

B2: optimized humanized antibody (humanized #6-55 H(2)-L(1), human IgG4 H chain constant region, λ L chain constant region) (antibody)
heavy: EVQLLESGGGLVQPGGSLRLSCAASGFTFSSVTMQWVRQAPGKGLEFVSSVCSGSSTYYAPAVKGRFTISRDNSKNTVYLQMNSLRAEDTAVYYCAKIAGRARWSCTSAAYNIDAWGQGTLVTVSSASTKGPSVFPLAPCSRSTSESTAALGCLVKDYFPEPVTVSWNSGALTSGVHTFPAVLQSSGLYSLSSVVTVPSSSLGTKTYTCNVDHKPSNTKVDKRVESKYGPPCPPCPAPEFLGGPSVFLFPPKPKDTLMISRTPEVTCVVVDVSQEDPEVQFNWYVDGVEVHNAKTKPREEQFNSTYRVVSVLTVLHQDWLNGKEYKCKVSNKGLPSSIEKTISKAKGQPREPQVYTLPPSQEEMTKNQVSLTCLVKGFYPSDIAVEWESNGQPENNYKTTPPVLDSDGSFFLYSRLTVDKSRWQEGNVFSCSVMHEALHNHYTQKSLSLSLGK
light: SYELTQPPSVSVSPGQTARITCSGGGNNYGWYQQKPGQAPVTVIYYNDNRPSGIPERFSGSNSGSTTTLTISGVQAEDEADYYCGSWDSNTDSGIFGGGTKLTVLGQPKAAPSVTLFPPSSEELQANKATLVCLISDFYPGAVTVAWKADSSPVKAGVETTTPSKQSNNKYAASSYLSLTPEQWKSHRSYSCQVTHEGSTVEKTVAPTECS
notes: Expressed in ExpiCHO
In assay [6], B2 returned a Kd of 10.9 nM.

B3: anti-FSTL1 antibody clone #22 (chicken-mouse chimeric antibody) (antibody, mouse IgG1, kappa, V domains shown)
VH: AVTLDESGGGLQTPGGALSLVCKASGFTFSSNGMAWVRQAPGKGLELVARINSSGSYTNYGAAVKGRATISRDNGQSTVRLQLNNLRAEDTGTYYCAKGASGYGAYPGNIDAWGHGTEVIVSS
VL: ASTQPSSVSANPGETVKITCSGGSGSYGWFQQKSPGSAPVTVIYWDDRRPSDIPSRFSGSKSGSIHTLTITGVQADDEAVYLCGNAVRSGTGYVGVFGAGTTLTVLG
In the case of B3, the binding result in assay [7] and in assay [8] was “binds” in each case.
